Tested on: Ras

In the case of “mouse neurofibromin expressed from full-length mNf1 cDNA with exon 28 deleted”, the “Ras assays (GTP-Ras levels, p-ERK/ERK ratio, ELK1 transcriptional activity)” value is reported as “exon 28 deletion performed the worst in Ras assays as it retained the least function”.
